Assays:
[1] = target: ISG15-PLA2mX fusion (mouse) (UniProt Q9QXX3); assay: cell-based or functional assay
Ubiquitin-PLA2mX fusion = target: T1, Ubiquitin-PLA2mX fusion (UniProt Q9QXX3)
T1 sequence: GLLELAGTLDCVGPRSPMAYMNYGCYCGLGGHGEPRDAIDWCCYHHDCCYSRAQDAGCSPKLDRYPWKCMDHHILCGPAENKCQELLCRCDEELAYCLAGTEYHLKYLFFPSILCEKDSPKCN

Row | rate of PLA2 activity (fluorescent lipid substrate), extracts of UBP43-transfected against non-transfected HEK293T cells [1] | Substance | Ratio of PLA2 activity, fusion with isopeptidase over fusion without (Ubiquitin-PLA2mX fusion) | cleavage of the fusion by SDS-PAGE (10 ug fusion, 3 ug core domain of USP2) (Ubiquitin-PLA2mX fusion)
1 | 4 fold | UBP43, the ISG15-specific isopeptidase (enzyme) |  | 
2 |  | core domain of USP2 (shared core enzymatic domain of the spliced USP2 product, either USP2a or USP2b) | 9.37 | complete cleavage of the fused Ub-PLA2mX was seen

Reference: patent publication US7842460
